In patent US20210292426A1:

How the values were obtained:
[1] = target: human CD40 expressed on cells (human) (UniProt P25942); experiment: flow cytometry, Raji cells
[2] = target: human CD40 expressed on cells (human) (UniProt P25942); experiment: flow cytometry, primary human B cells
[3] = target: human CD40 extracellular domain with C-terminal His-AviTag (human) (UniProt P25942); experiment: SPR (Biacore), antibody captured, CD40 ECD analyte

B1: P1AD4470 (CD40 IgG1, control) (antibody, from a related filing, V domains shown)
VH: EVQLVESGGGLVQPGGSLRLSCAASGYSFTGYYIHWVRQAPGKGLEWVARVIPNAGGTSYNQKFKGRFTLSVDNSKNTAYLQMNSLRAEDTAVYYCAREGIYWWGQGTLVTVSS
VL: DIQMTQSPSSLSASVGDRVTITCRSSQSLVHSNGNTFLHWYQQKPGKAPKLLIYTVSNRFSGVPSRFSGSGSGTDFTLTISSLQPEDFATYFCSQTTHVPWTFGQGTKVEIKR
With B1 the EC50 [1] was 0.09 µg/mL, the EC50 [2] was 0.333 nM and the Kd [3] was 4.6 nM. For the same binder, the koff [3] was 0.00781 s⁻¹ and the kon [3] was 1.69e+06 M⁻¹ s⁻¹.
